According to the supplement of paper PMC10567573:

B1: RHOBTB3 (parent)
chain: QLQSMPSRELASMNLDIVDLLKKA
B2: KRT71 (parent)
chain: ELRNVQDVVEDYKKRYEEEINKRT

Variants of: B1
Assay: protein stability index of a GFP-peptide fusion (GPS, HEK-293T) (PSI 1-6); higher = more stable
Conditions: c terminus: a fixed tail appended
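Also: lentivirally expressed fusions sorted by FACS into six bins by GFP to DsRed ratio, PSI derived from sequencing read proportions per bin multiplied by bin number.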

Protein stability index: each site, then its substitutions
R8: F 2.65; I 2.33; D 4.11; W 2.58; P 3.22; Y 2.66; L 2.35; A 4.22; S 3.99; V 3.83; G 3.71; C 3.85; M 3.2; E 4.28; Q 3.85; K 3.38; H 3.94
L10: S 4.49; Y 3.88; D 4.09; G 2.62; C 3.62; R 3.71; M 3.58; F 3.41; E 3.97; T 4.32; A 4.18; I 2.95; W 3.25; K 3.02; H 3.24; V 3.6; N 3.33; Q 3.63; P 3.83
S4: T 3.64; N 2.78; Y 3.75; W 3.6; L 3.23; F 3.19; R 3.06; A 3; E 4.83; H 3.24; P 3.54; K 3.08; D 3.82; M 3.28; V 3.11; C 3.54; I 3.78; G 3.82
E9: R 2.15; N 3.4; S 3.6; I 2.44; L 2.7; A 3.1; T 3.61; G 2.9; F 2.92; P 2.78; V 3.04; K 2.27; C 2.7; H 2.99; M 2.31; D 2.63; Y 3.14; Q 2.7
A11: R 2.81; S 3.54; E 3.73; M 3.34; D 3.75; H 3.21; N 3.29; V 3.27; Q 3.37; T 3.28; C 3.17; I 2.87; P 3.27; F 2.76; K 2.72; L 3.11; G 3.19; Y 2.86; W 2.79
Q1: I 2.71; F 2.95; G 3.51; R 3.72; H 2.92; V 2.98; P 4.72; W 2.62; T 3.66; N 3.65; A 3.43; L 2.55; E 3.01; S 2.75; M 3.38; C 2.86; Y 2.98; K 4.12
S12: G 3.9; E 4.26; H 3.06; Y 2.95; C 3.33; I 3.02; M 3.24; W 2.5; D 3.68; L 3.54; K 3.63; Q 4.1; F 3.22; P 4.11; V 3.95; R 2.13; N 3.06; T 3.75; A 3.28
S7: G 2.66; N 2.98; L 2.56; R 4.13; K 2.97; H 4.55; Q 3.77; D 3.9; E 3.48; Y 3; M 2.51; C 2.69; A 3.59; P 4.46; T 4.35; W 5; I 2.42
M13: I 2.39; R 3.61; A 4; N 4.17; G 3.76; P 4.01; T 3.38; D 3.96; S 3.35; Q 3.79; C 3.74; F 2.97; K 3.8; L 3.52; H 3.59; E 4.19
M5: T 3.94; H 3.43; A 3.04; S 3.76; V 3.32; W 2.07; C 3.23; D 3.78; N 2.78; I 2.95; P 3.54; G 2.58; F 3.33; E 3.54; Y 2.01; L 3.88; R 3.46; K 4.06; Q 3.69
Q3: I 3.18; Y 2.75; F 2.62; E 3.7; L 2.68; T 3.38; V 2.98; R 4.02; G 3.85; W 2.48; P 4.39; S 3.44; M 3.35; N 2.56; D 3.5
L2: E 4.29; I 3.16; T 3.55; A 3.21; M 3.83; C 4.45; K 3.18; P 4.72; Q 3.78; F 3.04; N 3.71; W 3.31; Y 4.34; R 3.47; D 4; V 2.77
P6: K 3.77; Q 3; W 1.85; L 2.2; Y 1.88; D 3.38; G 2.91; A 3.19; C 2.5; V 2.14; N 3.55; F 1.93; T 3.46; R 3.25; I 2.03; H 2.05

Variants of: B2
Assay: as above
Conditions: c terminus: a fixed tail appended

Protein stability index, by site and new letter:
R23: G 4.1; S 4.27; K 4.2; P 3.56
N21: G 3.77; Q 3.51; L 3.83; F 3.55; I 1.94; C 3.73
N4: G 3.65; A 4.38; S 4.32; M 3.77
D7: A 3.68; F 3.28; K 3.28; Q 4.58
Q6: M 3.14; I 2.54; K 3.75
T24: E 4.57; M 3.54; Y 3.18; V 3.69; G 3.94; I 4.02
K14: Q 3.49; M 3.82; A 3.17
E18: I 3.07; C 4.57
Y16: N 4.1; C 3.51; P 3.82; R 3.59; L 4.31; T 3.89
Y12: D 4.2; S 4.26; P 3.53; W 3.98
L2: G 5.65; A 5.76; P 4.96; M 3.99
I20: W 3.2; Y 3.15; P 3.71
K22: E 3.43; L 3.28; D 3.57; F 4.47; Q 4.35; N 4.11
V5: G 3.92; S 4.01; A 3.8; M 3.87; P 5.56; F 3.38; K 3.75
E19: W 2.92; V 3.48; I 3.39; R 4.11; P 4.28; C 3.9
E10: R 4; Q 3.13
R15: D 3.35; C 4.23; N 3.48; M 4.38; Q 4.26
K13: V 3.25; G 3.93; F 4.07; H 3.73; P 2.97; E 4.74
V9: R 2.95; N 3.24; I 3.74; P 4.21; H 4.4
E1: K 3.95; H 4.05
E17: I 3.57; W 3.87; M 3.02; S 3.86; T 3.45; K 3.24
D11: H 3.77; N 3.63; E 3.5; I 2.82; F 3.01; S 3.69
V8: S 4.53; N 3.38; P 3.67; A 3.37; D 4.42; M 3.23; K 3.43
